{
  "source": "patent US20210079070A1",
  "key": {"[1]": {"target": "BG505 SOSIP.664 Env ectodomain trimer (HIV-1)", "experiment": "SPR, BG505 SOSIP.664 captured by mAb 2G12, Fab in the flow phase"}, "JRFL SOSIP.664 (HIV-1)": {"target": "JRFL SOSIP.664 (HIV-1)", "experiment": "ELISA on soluble trimer, panel JRFL SOSIP.664, OD 450"}, "[2]": {"target": "BG505 SOSIP.664 Env ectodomain trimer (HIV-1)", "experiment": "ELISA on soluble trimer, panel BG505 SOSIP.664, OD 450"}, "[3]": {"target": "BG505 SOSIP.664 Env ectodomain trimer (HIV-1)", "experiment": "ELISA, BG505 SOSIP.664 coated on the plate, HRP anti-human IgG, OD 450"}, "BG505 DS-SOSIP": {"target": "BG505 DS-SOSIP", "experiment": "ELISA, panels headed BG505 DS-SOSIP, OD 450"}, "[4]": {"target": "BG505 SOSIP.664 Env ectodomain trimer (HIV-1)", "experiment": "ELISA, panel 'N6 70-03 Binding to BG505 SOSIP.664', HIV-1 Env mutation: WT"}, "[5]": {"target": "HIV-1 Env (wild type, as used in the mutagenesis mapping of FIG. 6) (HIV-1)", "experiment": "cell-based or functional assay"}, "[6]": {"target": "HIV-1 Env R304E mutant (HIV-1)", "experiment": "cell-based or functional assay"}},
  "data": [
    {"molecule": "VRC01 Fab", "values": [
      {"measurement": "Kd", "setting": "[1]", "value": 22.1, "unit": "nM"}
    ]},
    {"molecule": "N6 (antibody)", "values": [
      {"measurement": "EC50 (read off the curve)", "setting": "JRFL SOSIP.664 (HIV-1)", "value": 0.2, "unit": "µg/mL"}
    ]},
    {"molecule": "VRC01 (antibody)", "values": [
      {"measurement": "EC50 (read off the curve)", "setting": "[2]", "value": 0.4, "unit": "µg/mL"},
      {"measurement": "EC50 (read off the curve)", "setting": "JRFL SOSIP.664 (HIV-1)", "value": 0.2, "unit": "µg/mL"}
    ]},
    {"molecule": "N6 Fab", "values": [
      {"measurement": "Kd", "setting": "[1]", "value": 0.36, "unit": "nM"}
    ]},
    {"molecule": "VRC03 (antibody, V domains shown) VH: QVQLVQSGAVIKTPGSSVKISCRASGYNFRDYSIHWVRLIPDKGFEWIGWIKPLWGAVSYARQLQGRVSMTRQLSQDPDDPDWGVAYMEFSGLTSADTAEYFCVRRGSCDYCGDFPWQYWGQGTWVVSSA VL: EIVLTQSPGILSLSPGETATLFCKASQGGNAMTWYQKRRGQVPRLLIYDTSRRASGVPDRFVGSGSGTDFFLTINKLDREDFAVYYCQQFEFFGLGSELEVH", "values": [
      {"measurement": "EC50 (read off the curve)", "setting": "[3]", "value": 0.8, "unit": "µg/mL"},
      {"measurement": "EC50 (read off the curve)", "setting": "BG505 DS-SOSIP", "value": 0.3, "unit": "µg/mL"}
    ]},
    {"molecule": "VRC06 (antibody, V domains shown) VH: EVQLVESGPVMRKPGSSMKISCATSGYNFRDFSIHWVRFNRRYGFEWIGWIKPMWGAVNYARQLQGRVSMSRLFSQDLYYPDRGTAYLEFSGLTSADTADYFCVRRGSSCPHCGDFHFEHWGQGTAVVVSA VL: EIVLTQSPATLSLSPGERATLSCRASQGGNSLNWYQKRRGQTPRLLIYDTSRRASDIPEKFVGSGSGTDFSLTITKVGPEDFAVYYCQQFEFFGLGTTLEIN", "values": [
      {"measurement": "EC50 (read off the curve)", "setting": "BG505 DS-SOSIP", "value": 0.5, "unit": "µg/mL"}
    ]},
    {"molecule": "N6 70-03 (antibody, V domains shown) VH: RAHLVQSGTAMKKPGASVRVSCQTSGYTFTAHILFWFRQAPGRGLEWVGWIKPQYGAVNFGGGFRDRVTLTRQLSQDPDDPDWGIAYMDIRGLKPDDTAVYYCARDRSYGDSSWALDAWGQGTTVVVSA VL: YIHVTQSPSSLSVSIGDRVTINCQTSQGVGSDLHWYQHKPGRAPKLLIHHTSSVEDGVPSRFSGSGFHTSFNLTISDLQADDIATYYCQVLQFFGRGSRLHIK", "values": [
      {"measurement": "EC50 (read off the curve)", "setting": "[2]", "value": 0.2, "unit": "µg/mL"},
      {"measurement": "EC50 (read off the curve)", "setting": "E62K/E64K", "value": 0.1, "unit": "µg/mL"},
      {"measurement": "EC50 (read off the curve)", "setting": "[4]", "value": 0.2, "unit": "µg/mL"},
      {"measurement": "EC50 (read off the curve)", "setting": "JRFL SOSIP.664 (HIV-1)", "value": 0.2, "unit": "µg/mL"},
      {"measurement": "neutralization sensitivity (IC50), Env-pseudovirus infection of TZM-bl cells", "setting": "[5]", "value": 7, "unit": "ng/mL"},
      {"measurement": "neutralization sensitivity (IC50), Env-pseudovirus infection of TZM-bl cells", "setting": "[6]", "value": 0.053, "unit": "µg/mL"},
      {"measurement": "reduction in neutralization sensitivity compared to the WT virus", "setting": "[6]", "value": 8, "unit": "fold"}
    ]},
    {"molecule": "N6 70-03 Fab (Fab, V domains shown) VH: RAHLVQSGTAMKKPGASVRVSCQTSGYTFTAHILFWFRQAPGRGLEWVGWIKPQYGAVNFGGGFRDRVTLTRQLSQDPDDPDWGIAYMDIRGLKPDDTAVYYCARDRSYGDSSWALDAWGQGTTVVVSA VL: YIHVTQSPSSLSVSIGDRVTINCQTSQGVGSDLHWYQHKPGRAPKLLIHHTSSVEDGVPSRFSGSGFHTSFNLTISDLQADDIATYYCQVLQFFGRGSRLHIK", "values": [
      {"measurement": "Kd", "setting": "[1]", "value": 0.016, "unit": "nM"}
    ]}
  ]
}
